We go through 1 molecule from publication PMC11466962, “Nup358 restricts ER-mitochondria connectivity by modulating mTORC2/Akt/GSK3β signalling” (EMBO Reports, 2024).

The experiment concerns the target T1, GST-Nup358-MC2 (2012–2771 aa) (human, UniProt P49792 2012-2771).
T1 construct: also called GST-tagged Nup358-MC2; source: E. coli BL21 CodonPlus RIL (DE3), purified (Glutathione Agarose Beads)
Kind of experiment: co-IP; in vitro: 2 µM MBP protein incubated with 1.5 µM GST-Nup358-MC2 in 25 mM Tris-HCl pH 7.4, 150 mM NaCl, 5% glycerol, 0.01% Tween20, 2 h, 4 °C; MBP proteins immunoprecipitated with anti-MBP antibody on Protein G Dynabeads; western blot for Nup358-MC2. As to conditions: both partners purified. For orientation: Immunoblotting shows a protein as a band on a membrane.

T1 sequence (P49792 2012-2771): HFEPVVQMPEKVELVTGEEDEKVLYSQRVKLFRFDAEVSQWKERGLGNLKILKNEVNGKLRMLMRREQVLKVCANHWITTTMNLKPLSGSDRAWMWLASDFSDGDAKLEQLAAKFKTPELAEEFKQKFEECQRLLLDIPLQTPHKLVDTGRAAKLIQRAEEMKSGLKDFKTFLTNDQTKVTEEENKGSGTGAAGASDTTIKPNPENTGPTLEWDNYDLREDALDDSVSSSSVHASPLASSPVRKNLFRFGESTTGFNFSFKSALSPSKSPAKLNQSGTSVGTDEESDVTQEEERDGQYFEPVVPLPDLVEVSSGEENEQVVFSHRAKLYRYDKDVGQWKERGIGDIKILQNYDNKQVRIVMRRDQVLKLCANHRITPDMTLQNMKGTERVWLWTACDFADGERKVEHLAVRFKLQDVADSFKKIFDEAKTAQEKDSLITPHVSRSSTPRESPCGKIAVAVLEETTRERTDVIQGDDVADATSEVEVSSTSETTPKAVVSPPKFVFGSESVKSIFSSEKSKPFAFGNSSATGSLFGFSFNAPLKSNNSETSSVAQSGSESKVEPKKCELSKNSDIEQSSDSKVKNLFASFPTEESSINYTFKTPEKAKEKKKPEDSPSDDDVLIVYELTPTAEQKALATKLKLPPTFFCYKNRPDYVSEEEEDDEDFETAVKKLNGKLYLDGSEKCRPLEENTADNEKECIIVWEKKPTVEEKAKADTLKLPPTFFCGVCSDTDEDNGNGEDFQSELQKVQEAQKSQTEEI

B1: MBP-PTPIP51 (36–470 aa) (domain or fragment, UniProt Q96TC7 36-470, looked up)
chain: KRTQRHGRSQSLPNSLDYTQTSDPGRHVMLLRAVPGGAGDASVLPSLPREGQEKVLDRLDFVLTSLVALRREVEELRSSLRGLAGEIVGEVRCHMEENQRVARRRRFPFVRERSDSTGSSSVYFTASSGATFTDAESEGGYTTANAESDNERDSDKESEDGEDEVSCETVKMGRKDSLDLEEEAASGASSALEAGGSSGLEDVLPLLQQADELHRGDEQGKREGFQLLLNNKLVYGSRQDFLWRLARAYSDMCELTEEVSEKKSYALDGKEEAEAALEKGDESADCHLWYAVLCGQLAEHESIQRRIQSGFSFKEHVDKAIALQPENPMAHFLLGRWCYQVSHLSWLEKKTATALLESPLSATVEDALQSFLKAEELQPGFSKAGRVYISKCYRELGKNSEARWWMKLALELPDVTKEDLAIQKDLEELEVILRD
notes: PTPIP51 (RMDN3), residues 36-470, cloned into pMAL-c2; source: E. coli BL21 Star (DE3), purified (Ni-NTA, Amylose resin); not shown: MBP, N-terminal, kept
In the case of B1, the binding result was “binds”.
